Measurements as given in paper PMC9482650, “Quantitative fragmentomics allow affinity mapping of interactomes” (Nature Communications, 2022).
Substitutions are numbered along the chain they refer to.

B1: PALLS, Q8WX93;Q8WX93-1 (peptide)
chain: NTALVESEDL
B2: CLDN10, P78369 (peptide)
chain: SKQFDKNAYV
B3: HNRNPK, P61978;P61978-2 (peptide)
chain: VKQYADVEGF
B4: SLC9A3, P48764 (peptide)
chain: PAALPESTHM
B5: SLC26A3, P40879 (peptide)
chain: VYEVPVETKF

These binders were tested against HTRA2, O43464 (assay: holdup assay). Conditions: plain residues with an end cap or a label only (N-terminal biotin on a linker: ado-ado).
Set-up: key: below the threshold = too weak to quantify, mostly under pKd 3.1 to 4

Chain of HTRA2, O43464 (O43464 355-458): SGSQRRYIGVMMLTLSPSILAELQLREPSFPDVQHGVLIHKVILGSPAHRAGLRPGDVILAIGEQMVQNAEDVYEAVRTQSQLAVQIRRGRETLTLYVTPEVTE

Binder | pKd
B1 | below the threshold
B2 | below the threshold
B3 | below the threshold
B4 | below the threshold
B5 | below the threshold

These binders were tested against T1, RAPGEF6, Q8TEU7 (assay: holdup assay). Conditions: plain residues with an end cap or a label only (N-terminal biotin on a linker: ado-ado).
T1 sequence (Q8TEU7 525-625, limits assumed, looked up): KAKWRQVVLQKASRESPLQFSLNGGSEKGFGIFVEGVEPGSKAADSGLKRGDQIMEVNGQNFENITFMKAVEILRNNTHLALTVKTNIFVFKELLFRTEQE
Set-up: key: below the threshold = too weak to quantify, mostly under pKd 3.1 to 4

Binder | pKd
B1 | below the threshold
B2 | below the threshold
B3 | below the threshold
B4 | below the threshold
B5 | below the threshold

These binders were tested against FRMPD3, Q5JV73 (assay: holdup assay). Conditions: plain residues with an end cap or a label only (N-terminal biotin on a linker: ado-ado).
Set-up: key: below the threshold = too weak to quantify, mostly under pKd 3.1 to 4

Chain of FRMPD3, Q5JV73 (Q5JV73 12-100): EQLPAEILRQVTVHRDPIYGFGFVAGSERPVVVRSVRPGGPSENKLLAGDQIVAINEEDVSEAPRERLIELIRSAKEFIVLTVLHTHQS

Binder | pKd
B1 | below the threshold
B2 | below the threshold
B3 | below the threshold
B4 | below the threshold
B5 | below the threshold

What follows are binders tested against T2, SNTG2, Q9NY99 (assay: holdup assay). Conditions: plain residues with an end cap or a label only (N-terminal biotin on a linker: ado-ado).
T2 sequence (Q9NY99 68-166, limits assumed, looked up): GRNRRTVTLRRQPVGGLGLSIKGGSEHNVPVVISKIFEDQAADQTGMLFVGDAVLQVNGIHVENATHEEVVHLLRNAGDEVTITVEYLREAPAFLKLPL
Set-up: key: below the threshold = too weak to quantify, mostly under pKd 3.1 to 4

Binder | pKd
B1 | below the threshold
B2 | below the threshold
B3 | below the threshold
B4 | below the threshold
B5 | below the threshold

Each binder was assayed against LIMK2, P53671 (assay: holdup assay). Conditions: plain residues with an end cap or a label only (N-terminal biotin on a linker: ado-ado).
Set-up: key: below the threshold = too weak to quantify, mostly under pKd 3.1 to 4

Chain of LIMK2, P53671 (P53671 143-248): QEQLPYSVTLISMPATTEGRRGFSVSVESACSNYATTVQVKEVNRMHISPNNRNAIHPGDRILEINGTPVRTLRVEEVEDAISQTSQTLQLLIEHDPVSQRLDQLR

Binder | pKd
B1 | below the threshold
B2 | below the threshold
B3 | below the threshold
B4 | below the threshold
B5 | below the threshold

What follows are binders tested against T3, APBA2_2, Q99767 (assay: holdup assay). Conditions: plain residues with an end cap or a label only (N-terminal biotin on a linker: ado-ado).
T3 sequence (Q99767 654-744, limits assumed, looked up): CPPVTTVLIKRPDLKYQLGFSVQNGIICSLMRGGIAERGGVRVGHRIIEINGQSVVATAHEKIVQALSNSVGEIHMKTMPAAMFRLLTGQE
Set-up: key: below the threshold = too weak to quantify, mostly under pKd 3.1 to 4

Binder | pKd
B1 | below the threshold
B2 | below the threshold
B3 | below the threshold
B4 | below the threshold
B5 | below the threshold

The binders below were run against T4, APBA1_1, Q02410 (assay: holdup assay). Conditions: plain residues with an end cap or a label only (N-terminal biotin on a linker: ado-ado).
T4 sequence (Q02410 651-752, limits assumed, looked up): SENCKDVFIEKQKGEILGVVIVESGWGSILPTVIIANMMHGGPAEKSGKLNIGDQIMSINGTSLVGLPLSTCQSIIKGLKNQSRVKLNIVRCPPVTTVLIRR
Set-up: key: below the threshold = too weak to quantify, mostly under pKd 3.1 to 4

Binder | pKd
B1 | below the threshold
B2 | below the threshold
B3 | below the threshold
B4 | below the threshold
B5 | below the threshold

What follows are binders tested against T5, TX1BP3, O14907 (assay: holdup assay). Conditions: plain residues with an end cap or a label only (N-terminal biotin on a linker: ado-ado).
T5 sequence (O14907 10-122, limits assumed, looked up): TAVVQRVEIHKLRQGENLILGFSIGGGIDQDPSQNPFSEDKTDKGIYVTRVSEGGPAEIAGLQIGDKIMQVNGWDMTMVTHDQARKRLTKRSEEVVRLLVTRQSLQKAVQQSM
Set-up: key: below the threshold = too weak to quantify, mostly under pKd 3.1 to 4

Binder | pKd
B1 | below the threshold
B2 | below the threshold
B3 | 3.97
B4 | below the threshold
B5 | below the threshold

Each binder was assayed against T6, LIN7A, O14910 (assay: holdup assay). Conditions: plain residues with an end cap or a label only (N-terminal biotin on a linker: ado-ado).
T6 sequence (O14910 103-200, limits assumed, looked up): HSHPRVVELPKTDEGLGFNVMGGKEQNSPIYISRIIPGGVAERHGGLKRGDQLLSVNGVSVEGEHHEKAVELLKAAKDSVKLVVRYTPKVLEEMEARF
Set-up: key: below the threshold = too weak to quantify, mostly under pKd 3.1 to 4

Binder | pKd
B1 | below the threshold
B2 | below the threshold
B3 | below the threshold
B4 | below the threshold
B5 | below the threshold

Each binder was assayed against GRASP, Q7Z6J2 (assay: holdup assay). Conditions: plain residues with an end cap or a label only (N-terminal biotin on a linker: ado-ado).
Set-up: key: below the threshold = too weak to quantify, mostly under pKd 3.1 to 4

Chain of GRASP, Q7Z6J2 (Q7Z6J2 96-193): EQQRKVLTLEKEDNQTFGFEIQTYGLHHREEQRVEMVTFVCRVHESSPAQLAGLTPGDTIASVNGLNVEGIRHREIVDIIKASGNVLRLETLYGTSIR

Binder | pKd
B1 | below the threshold
B2 | 3.56
B4 | below the threshold
B5 | 3.81

What follows are binders tested against LNX1_2, Q8TBB1 (assay: holdup assay). Conditions: plain residues with an end cap or a label only (N-terminal biotin on a linker: ado-ado).
Set-up: key: below the threshold = too weak to quantify, mostly under pKd 3.1 to 4

Chain of LNX1_2, Q8TBB1 (Q8TBB1 371-470): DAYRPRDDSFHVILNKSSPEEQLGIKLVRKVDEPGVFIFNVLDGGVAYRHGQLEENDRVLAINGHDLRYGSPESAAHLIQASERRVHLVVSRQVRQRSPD

Binder | pKd
B1 | below the threshold
B2 | below the threshold
B3 | below the threshold
B4 | below the threshold
B5 | below the threshold

Each binder was assayed against DLG1_3, Q12959 (assay: holdup assay). Conditions: plain residues with an end cap or a label only (N-terminal biotin on a linker: ado-ado).
Set-up: key: below the threshold = too weak to quantify, mostly under pKd 3.1 to 4

Chain of DLG1_3, Q12959 (Q12959 457-571): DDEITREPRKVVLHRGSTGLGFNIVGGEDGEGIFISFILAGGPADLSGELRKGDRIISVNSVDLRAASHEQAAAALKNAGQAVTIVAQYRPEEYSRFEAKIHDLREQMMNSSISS

Binder | pKd
B1 | below the threshold
B2 | below the threshold
B3 | below the threshold
B4 | below the threshold
B5 | 3.6

The binders below were run against T7, PCLO, Q9Y6V0 (assay: holdup assay). Conditions: plain residues with an end cap or a label only (N-terminal biotin on a linker: ado-ado).
T7 sequence (Q9Y6V0 4491-4600, limits assumed, looked up): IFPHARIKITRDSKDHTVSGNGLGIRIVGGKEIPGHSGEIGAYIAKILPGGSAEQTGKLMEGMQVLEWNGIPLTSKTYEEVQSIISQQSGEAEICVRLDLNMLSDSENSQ
Set-up: key: below the threshold = too weak to quantify, mostly under pKd 3.1 to 4

Binder | pKd
B1 | below the threshold
B2 | below the threshold
B3 | below the threshold
B4 | below the threshold
B5 | below the threshold

What follows are binders tested against T8, DLG3_2, Q92796 (assay: holdup assay). Conditions: plain residues with an end cap or a label only (N-terminal biotin on a linker: ado-ado).
T8 sequence (Q92796 221-321, limits assumed, looked up): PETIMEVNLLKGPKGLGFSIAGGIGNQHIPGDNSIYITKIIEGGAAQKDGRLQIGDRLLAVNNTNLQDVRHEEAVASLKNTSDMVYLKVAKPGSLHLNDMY
Set-up: key: below the threshold = too weak to quantify, mostly under pKd 3.1 to 4

Binder | pKd
B1 | below the threshold
B2 | below the threshold
B3 | 4.09
B4 | below the threshold
B5 | 4.13

The binders below were run against Inadl_10, Q8NI35 (assay: holdup assay). Conditions: plain residues with an end cap or a label only (N-terminal biotin on a linker: ado-ado).
Set-up: key: below the threshold = too weak to quantify, mostly under pKd 3.1 to 4

Chain of Inadl_10, Q8NI35 (Q8NI35 1673-1763): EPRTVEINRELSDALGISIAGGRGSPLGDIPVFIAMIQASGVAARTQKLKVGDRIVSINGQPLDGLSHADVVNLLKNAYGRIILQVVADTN

Binder | pKd
B1 | below the threshold
B2 | below the threshold
B3 | below the threshold
B4 | below the threshold
B5 | below the threshold

These binders were tested against MAGI3_2, Q5TCQ9 (assay: holdup assay). Conditions: plain residues with an end cap or a label only (N-terminal biotin on a linker: ado-ado).
Set-up: key: below the threshold = too weak to quantify, mostly under pKd 3.1 to 4

Chain of MAGI3_2, Q5TCQ9 (Q5TCQ9 398-503): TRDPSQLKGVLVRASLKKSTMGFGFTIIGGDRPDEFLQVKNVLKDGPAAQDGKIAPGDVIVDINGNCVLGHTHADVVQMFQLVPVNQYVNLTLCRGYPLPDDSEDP

Binder | pKd
B1 | below the threshold
B2 | 3.67
B3 | below the threshold
B4 | below the threshold
B5 | below the threshold

Each binder was assayed against MAGI2_6, Q86UL8 (assay: holdup assay). Conditions: plain residues with an end cap or a label only (N-terminal biotin on a linker: ado-ado).
Set-up: key: below the threshold = too weak to quantify, mostly under pKd 3.1 to 4

Chain of MAGI2_6, Q86UL8 (Q86UL8 1141-1229): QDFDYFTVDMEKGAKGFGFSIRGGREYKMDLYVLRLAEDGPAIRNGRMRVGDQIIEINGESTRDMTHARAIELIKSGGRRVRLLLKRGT

Binder | pKd
B1 | 4.01
B2 | below the threshold
B3 | below the threshold
B4 | below the threshold
B5 | 4

These binders were tested against ARHGEF12, Q9NZN5-2 (assay: holdup assay). Conditions: plain residues with an end cap or a label only (N-terminal biotin on a linker: ado-ado).
Set-up: key: below the threshold = too weak to quantify, mostly under pKd 3.1 to 4

Chain of ARHGEF12, Q9NZN5-2 (Q9NZN5 other isoform, or with tags, fused parts or gaps): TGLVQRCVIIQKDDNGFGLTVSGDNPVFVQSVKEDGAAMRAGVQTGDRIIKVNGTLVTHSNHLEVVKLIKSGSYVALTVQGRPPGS

Binder | pKd
B1 | below the threshold
B2 | 3.66
B3 | below the threshold
B4 | below the threshold
B5 | below the threshold

What follows are binders tested against Inadl_9, Q8NI35 (assay: holdup assay). Conditions: plain residues with an end cap or a label only (N-terminal biotin on a linker: ado-ado).
Set-up: key: below the threshold = too weak to quantify, mostly under pKd 3.1 to 4

Chain of Inadl_9, Q8NI35 (Q8NI35 1530-1615): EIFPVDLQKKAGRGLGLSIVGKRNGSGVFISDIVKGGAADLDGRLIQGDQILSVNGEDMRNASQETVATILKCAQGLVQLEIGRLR

Binder | pKd
B1 | below the threshold
B2 | below the threshold
B3 | below the threshold
B4 | below the threshold
B5 | below the threshold

These binders were tested against T9, DLG3_1, Q92796 (assay: holdup assay). Conditions: plain residues with an end cap or a label only (N-terminal biotin on a linker: ado-ado).
T9 sequence (Q92796 125-227, limits assumed, looked up): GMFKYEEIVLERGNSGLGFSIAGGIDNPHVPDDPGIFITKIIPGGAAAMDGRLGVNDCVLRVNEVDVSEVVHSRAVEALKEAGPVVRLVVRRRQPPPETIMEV
Set-up: key: below the threshold = too weak to quantify, mostly under pKd 3.1 to 4

Binder | pKd
B1 | below the threshold
B2 | below the threshold
B3 | below the threshold
B4 | below the threshold
B5 | below the threshold

The binders below were run against GRIP2_7, Q9C0E4 (assay: holdup assay). Conditions: plain residues with an end cap or a label only (N-terminal biotin on a linker: ado-ado).
Set-up: key: below the threshold = too weak to quantify, mostly under pKd 3.1 to 4

Chain of GRIP2_7, Q9C0E4 (Q9C0E4 934-1023): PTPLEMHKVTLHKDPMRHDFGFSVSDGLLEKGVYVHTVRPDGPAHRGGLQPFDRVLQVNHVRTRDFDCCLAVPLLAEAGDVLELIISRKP

Binder | pKd
B1 | below the threshold
B2 | below the threshold
B3 | below the threshold
B4 | below the threshold
B5 | below the threshold

What follows are binders tested against LNX1_1, Q8TBB1 (assay: holdup assay). Conditions: plain residues with an end cap or a label only (N-terminal biotin on a linker: ado-ado).
Set-up: key: below the threshold = too weak to quantify, mostly under pKd 3.1 to 4

Chain of LNX1_1, Q8TBB1 (Q8TBB1 261-371): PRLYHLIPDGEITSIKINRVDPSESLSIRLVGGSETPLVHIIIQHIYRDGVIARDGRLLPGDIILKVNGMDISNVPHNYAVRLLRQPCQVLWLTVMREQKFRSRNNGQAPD

Binder | pKd
B1 | below the threshold
B2 | below the threshold
B3 | below the threshold
B4 | below the threshold
B5 | 3.85

What follows are binders tested against T10, PARD3B_1, Q8TEW8 (assay: holdup assay). Conditions: plain residues with an end cap or a label only (N-terminal biotin on a linker: ado-ado).
T10 sequence (Q8TEW8 196-299, limits assumed, looked up): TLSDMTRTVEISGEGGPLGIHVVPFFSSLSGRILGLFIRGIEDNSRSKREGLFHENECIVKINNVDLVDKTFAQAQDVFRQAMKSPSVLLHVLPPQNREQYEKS
Set-up: key: below the threshold = too weak to quantify, mostly under pKd 3.1 to 4

Binder | pKd
B2 | 3.97
B3 | below the threshold
B4 | 3.6
B5 | 4.19

The binders below were run against T11, LIN7C, Q9NUP9 (assay: holdup assay). Conditions: plain residues with an end cap or a label only (N-terminal biotin on a linker: ado-ado).
T11 sequence (Q9NUP9 88-185, limits assumed, looked up): T6 sequence (O14910 103-200, limits assumed, looked up) with D13E, V20I, V40I, E42D, K77Q, D78G, S79K, A96S
Set-up: key: below the threshold = too weak to quantify, mostly under pKd 3.1 to 4

Binder | pKd
B1 | below the threshold
B2 | below the threshold
B3 | 4.03
B4 | below the threshold
B5 | 4.01

The binders below were run against T12, APBA2_1, Q99767 (assay: holdup assay). Conditions: plain residues with an end cap or a label only (N-terminal biotin on a linker: ado-ado).
T12 sequence (Q99767 563-664, limits assumed, looked up): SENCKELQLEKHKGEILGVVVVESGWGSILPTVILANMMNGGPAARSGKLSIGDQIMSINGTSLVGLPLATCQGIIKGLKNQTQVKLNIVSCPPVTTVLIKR
Set-up: key: below the threshold = too weak to quantify, mostly under pKd 3.1 to 4

Binder | pKd
B1 | below the threshold
B2 | below the threshold
B3 | below the threshold
B4 | below the threshold
B5 | below the threshold
